Results taken from article PMC5345052, “Auto-phosphorylation Represses Protein Kinase R Activity” (Scientific Reports, 2017).
Values belong to the molecule of their own block, whether it stands above or below them.

Tests used:
[1] = biological target: truncated PKR kinase domain with N-terminal split Venus V2 tag (UniProt P19525); assay: split Venus fluorescence complementation in HEK293 cells; conditions: 20 ng/well of each plasmid construct, read off a plot
[2] = biological target: truncated phosphor-transfer mutant PKR kinase domain (KD-K296R) with N-terminal split Venus V2 tag (UniProt P19525); assay: as above; conditions: 20 ng/well of each plasmid construct; partner kinase domain carries K296R; n = 5; parent: est. 3.0; read off a plot
[3] = biological target: PKR RNA-binding domain with C-terminal split Venus V1 tag; assay: as above; conditions: 20 ng/well of each plasmid construct; n = 5; parent: est. 2.9; read off a plot
[4] = biological target: T1, truncated phosphor-transfer mutant PKR kinase domain (KD-K296R) with N-terminal split Venus V2 tag, P19525; assay: as above; conditions: chain shown with the change; 20 ng/well of full-length PKR and 30 ng/well of the truncated KD; partner kinase domain carries K296R; n = 7; parent: est. 4.2; read off a plot
T1 chain: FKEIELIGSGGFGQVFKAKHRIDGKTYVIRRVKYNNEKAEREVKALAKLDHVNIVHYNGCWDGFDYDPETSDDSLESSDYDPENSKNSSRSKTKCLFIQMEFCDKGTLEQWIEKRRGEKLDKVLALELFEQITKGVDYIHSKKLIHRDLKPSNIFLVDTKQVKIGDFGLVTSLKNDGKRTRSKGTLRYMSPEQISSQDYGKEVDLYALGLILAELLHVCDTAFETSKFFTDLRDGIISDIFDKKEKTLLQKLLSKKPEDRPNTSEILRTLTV

[5] = biological target: T2, kinase-dead PKR (K296R), recombinant His-tagged full-length protein kinase R (human), P19525; assay: liquid chromatography; recombinant PKR isolated during purification as separate monomer and dimer species; conditions: remark: other sources report otherwise
T2 chain: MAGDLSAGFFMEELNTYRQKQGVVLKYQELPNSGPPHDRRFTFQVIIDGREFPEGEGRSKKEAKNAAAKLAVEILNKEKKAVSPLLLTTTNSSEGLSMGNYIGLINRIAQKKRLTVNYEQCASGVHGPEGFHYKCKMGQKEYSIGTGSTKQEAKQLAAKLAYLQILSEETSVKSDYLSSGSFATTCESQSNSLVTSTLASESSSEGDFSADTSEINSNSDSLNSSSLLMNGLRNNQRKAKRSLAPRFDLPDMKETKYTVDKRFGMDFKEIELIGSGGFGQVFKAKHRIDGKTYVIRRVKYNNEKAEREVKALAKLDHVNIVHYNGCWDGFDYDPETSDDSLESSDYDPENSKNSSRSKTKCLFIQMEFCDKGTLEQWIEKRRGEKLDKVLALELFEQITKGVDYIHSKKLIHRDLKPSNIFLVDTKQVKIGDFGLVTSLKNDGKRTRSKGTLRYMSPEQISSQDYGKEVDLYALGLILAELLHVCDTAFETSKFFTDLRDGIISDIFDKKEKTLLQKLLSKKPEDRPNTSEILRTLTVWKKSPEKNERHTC

[6] = 5 μM 2-aminopurine (2AP), n = 6, parent: est. 3.8

- response [3]: 3
Molecule: truncated PKR kinase domain with N-terminal split Venus V2 tag (from UniProt P19525) K296R

- response [4]: 12
B3: full-length PKR with N-terminal split Venus V1 tag, P19525 S33E; T42E; R262D (protein)
chain: MAGDLSAGFFMEELNTYRQKQGVVLKYQELPNEGPPHDRRFEFQVIIDGREFPEGEGRSKKEAKNAAAKLAVEILNKEKKAVSPLLLTTTNSSEGLSMGNYIGLINRIAQKKRLTVNYEQCASGVHGPEGFHYKCKMGQKEYSIGTGSTKQEAKQLAAKLAYLQILSEETSVKSDYLSSGSFATTCESQSNSLVTSTLASESSSEGDFSADTSEINSNSDSLNSSSLLMNGLRNNQRKAKRSLAPRFDLPDMKETKYTVDKDFGMDFKEIELIGSGGFGQVFKAKHRIDGKTYVIKRVKYNNEKAEREVKALAKLDHVNIVHYNGCWDGFDYDPETSDDSLESSDYDPENSKNSSRSKTKCLFIQMEFCDKGTLEQWIEKRRGEKLDKVLALELFEQITKGVDYIHSKKLIHRDLKPSNIFLVDTKQVKIGDFGLVTSLKNDGKRTRSKGTLRYMSPEQISSQDYGKEVDLYALGLILAELLHVCDTAFETSKFFTDLRDGIISDIFDKKEKTLLQKLLSKKPEDRPNTSEILRTLTVWKKSPEKNERHTC

- response [4]: 3.4
B5: full-length PKR with N-terminal split Venus V1 tag, P19525 K261D (protein)
chain: MAGDLSAGFFMEELNTYRQKQGVVLKYQELPNSGPPHDRRFTFQVIIDGREFPEGEGRSKKEAKNAAAKLAVEILNKEKKAVSPLLLTTTNSSEGLSMGNYIGLINRIAQKKRLTVNYEQCASGVHGPEGFHYKCKMGQKEYSIGTGSTKQEAKQLAAKLAYLQILSEETSVKSDYLSSGSFATTCESQSNSLVTSTLASESSSEGDFSADTSEINSNSDSLNSSSLLMNGLRNNQRKAKRSLAPRFDLPDMKETKYTVDDRFGMDFKEIELIGSGGFGQVFKAKHRIDGKTYVIKRVKYNNEKAEREVKALAKLDHVNIVHYNGCWDGFDYDPETSDDSLESSDYDPENSKNSSRSKTKCLFIQMEFCDKGTLEQWIEKRRGEKLDKVLALELFEQITKGVDYIHSKKLIHRDLKPSNIFLVDTKQVKIGDFGLVTSLKNDGKRTRSKGTLRYMSPEQISSQDYGKEVDLYALGLILAELLHVCDTAFETSKFFTDLRDGIISDIFDKKEKTLLQKLLSKKPEDRPNTSEILRTLTVWKKSPEKNERHTC

- response [4]: 3.6
B6: full-length PKR with N-terminal split Venus V1 tag, P19525 S33E; T42E; K261D (protein)
chain: MAGDLSAGFFMEELNTYRQKQGVVLKYQELPNEGPPHDRRFEFQVIIDGREFPEGEGRSKKEAKNAAAKLAVEILNKEKKAVSPLLLTTTNSSEGLSMGNYIGLINRIAQKKRLTVNYEQCASGVHGPEGFHYKCKMGQKEYSIGTGSTKQEAKQLAAKLAYLQILSEETSVKSDYLSSGSFATTCESQSNSLVTSTLASESSSEGDFSADTSEINSNSDSLNSSSLLMNGLRNNQRKAKRSLAPRFDLPDMKETKYTVDDRFGMDFKEIELIGSGGFGQVFKAKHRIDGKTYVIKRVKYNNEKAEREVKALAKLDHVNIVHYNGCWDGFDYDPETSDDSLESSDYDPENSKNSSRSKTKCLFIQMEFCDKGTLEQWIEKRRGEKLDKVLALELFEQITKGVDYIHSKKLIHRDLKPSNIFLVDTKQVKIGDFGLVTSLKNDGKRTRSKGTLRYMSPEQISSQDYGKEVDLYALGLILAELLHVCDTAFETSKFFTDLRDGIISDIFDKKEKTLLQKLLSKKPEDRPNTSEILRTLTVWKKSPEKNERHTC

- response [4]: 13
B7: full-length PKR with N-terminal split Venus V1 tag, P19525 R262D (protein)
chain: MAGDLSAGFFMEELNTYRQKQGVVLKYQELPNSGPPHDRRFTFQVIIDGREFPEGEGRSKKEAKNAAAKLAVEILNKEKKAVSPLLLTTTNSSEGLSMGNYIGLINRIAQKKRLTVNYEQCASGVHGPEGFHYKCKMGQKEYSIGTGSTKQEAKQLAAKLAYLQILSEETSVKSDYLSSGSFATTCESQSNSLVTSTLASESSSEGDFSADTSEINSNSDSLNSSSLLMNGLRNNQRKAKRSLAPRFDLPDMKETKYTVDKDFGMDFKEIELIGSGGFGQVFKAKHRIDGKTYVIKRVKYNNEKAEREVKALAKLDHVNIVHYNGCWDGFDYDPETSDDSLESSDYDPENSKNSSRSKTKCLFIQMEFCDKGTLEQWIEKRRGEKLDKVLALELFEQITKGVDYIHSKKLIHRDLKPSNIFLVDTKQVKIGDFGLVTSLKNDGKRTRSKGTLRYMSPEQISSQDYGKEVDLYALGLILAELLHVCDTAFETSKFFTDLRDGIISDIFDKKEKTLLQKLLSKKPEDRPNTSEILRTLTVWKKSPEKNERHTC

- stoichiometry N [5]: 2
B8: kinase-dead PKR (K296R), recombinant His-tagged full-length protein kinase R, P19525 1-551 (enzyme)
chain: MAGDLSAGFFMEELNTYRQKQGVVLKYQELPNSGPPHDRRFTFQVIIDGREFPEGEGRSKKEAKNAAAKLAVEILNKEKKAVSPLLLTTTNSSEGLSMGNYIGLINRIAQKKRLTVNYEQCASGVHGPEGFHYKCKMGQKEYSIGTGSTKQEAKQLAAKLAYLQILSEETSVKSDYLSSGSFATTCESQSNSLVTSTLASESSSEGDFSADTSEINSNSDSLNSSSLLMNGLRNNQRKAKRSLAPRFDLPDMKETKYTVDKRFGMDFKEIELIGSGGFGQVFKAKHRIDGKTYVIRRVKYNNEKAEREVKALAKLDHVNIVHYNGCWDGFDYDPETSDDSLESSDYDPENSKNSSRSKTKCLFIQMEFCDKGTLEQWIEKRRGEKLDKVLALELFEQITKGVDYIHSKKLIHRDLKPSNIFLVDTKQVKIGDFGLVTSLKNDGKRTRSKGTLRYMSPEQISSQDYGKEVDLYALGLILAELLHVCDTAFETSKFFTDLRDGIISDIFDKKEKTLLQKLLSKKPEDRPNTSEILRTLTVWKKSPEKNERHTC

More lines, now with the values behind:

Molecule: PKR RNA-binding domain with C-terminal split Venus V1 tag S33E; T42E
- response [1, 6]: 3.1
- response ([1]; n = 7, parent: est. 2.9): 2.5
- response [2]: 2.6

Molecule: PKR RNA-binding domain with C-terminal split Venus V1 tag S33A; T42A
- response [1, 6]: 4.3
- response ([1]; n = 7, parent: est. 2.9): 2.9
- response [2]: 3.5

B1: full-length PKR with N-terminal split Venus V1 tag, P19525 H37R; S33A; T42A (protein)
chain: MAGDLSAGFFMEELNTYRQKQGVVLKYQELPNAGPPRDRRFAFQVIIDGREFPEGEGRSKKEAKNAAAKLAVEILNKEKKAVSPLLLTTTNSSEGLSMGNYIGLINRIAQKKRLTVNYEQCASGVHGPEGFHYKCKMGQKEYSIGTGSTKQEAKQLAAKLAYLQILSEETSVKSDYLSSGSFATTCESQSNSLVTSTLASESSSEGDFSADTSEINSNSDSLNSSSLLMNGLRNNQRKAKRSLAPRFDLPDMKETKYTVDKRFGMDFKEIELIGSGGFGQVFKAKHRIDGKTYVIKRVKYNNEKAEREVKALAKLDHVNIVHYNGCWDGFDYDPETSDDSLESSDYDPENSKNSSRSKTKCLFIQMEFCDKGTLEQWIEKRRGEKLDKVLALELFEQITKGVDYIHSKKLIHRDLKPSNIFLVDTKQVKIGDFGLVTSLKNDGKRTRSKGTLRYMSPEQISSQDYGKEVDLYALGLILAELLHVCDTAFETSKFFTDLRDGIISDIFDKKEKTLLQKLLSKKPEDRPNTSEILRTLTVWKKSPEKNERHTC
- response [4]: 21

B2: full-length PKR with N-terminal split Venus V1 tag, P19525 H37R (protein)
chain: MAGDLSAGFFMEELNTYRQKQGVVLKYQELPNSGPPRDRRFTFQVIIDGREFPEGEGRSKKEAKNAAAKLAVEILNKEKKAVSPLLLTTTNSSEGLSMGNYIGLINRIAQKKRLTVNYEQCASGVHGPEGFHYKCKMGQKEYSIGTGSTKQEAKQLAAKLAYLQILSEETSVKSDYLSSGSFATTCESQSNSLVTSTLASESSSEGDFSADTSEINSNSDSLNSSSLLMNGLRNNQRKAKRSLAPRFDLPDMKETKYTVDKRFGMDFKEIELIGSGGFGQVFKAKHRIDGKTYVIKRVKYNNEKAEREVKALAKLDHVNIVHYNGCWDGFDYDPETSDDSLESSDYDPENSKNSSRSKTKCLFIQMEFCDKGTLEQWIEKRRGEKLDKVLALELFEQITKGVDYIHSKKLIHRDLKPSNIFLVDTKQVKIGDFGLVTSLKNDGKRTRSKGTLRYMSPEQISSQDYGKEVDLYALGLILAELLHVCDTAFETSKFFTDLRDGIISDIFDKKEKTLLQKLLSKKPEDRPNTSEILRTLTVWKKSPEKNERHTC
- response [4]: 3.8

B4: full-length PKR with N-terminal split Venus V1 tag, P19525 H37R; S33E; T42E (protein)
chain: MAGDLSAGFFMEELNTYRQKQGVVLKYQELPNEGPPRDRRFEFQVIIDGREFPEGEGRSKKEAKNAAAKLAVEILNKEKKAVSPLLLTTTNSSEGLSMGNYIGLINRIAQKKRLTVNYEQCASGVHGPEGFHYKCKMGQKEYSIGTGSTKQEAKQLAAKLAYLQILSEETSVKSDYLSSGSFATTCESQSNSLVTSTLASESSSEGDFSADTSEINSNSDSLNSSSLLMNGLRNNQRKAKRSLAPRFDLPDMKETKYTVDKRFGMDFKEIELIGSGGFGQVFKAKHRIDGKTYVIKRVKYNNEKAEREVKALAKLDHVNIVHYNGCWDGFDYDPETSDDSLESSDYDPENSKNSSRSKTKCLFIQMEFCDKGTLEQWIEKRRGEKLDKVLALELFEQITKGVDYIHSKKLIHRDLKPSNIFLVDTKQVKIGDFGLVTSLKNDGKRTRSKGTLRYMSPEQISSQDYGKEVDLYALGLILAELLHVCDTAFETSKFFTDLRDGIISDIFDKKEKTLLQKLLSKKPEDRPNTSEILRTLTVWKKSPEKNERHTC
- response [4]: 3.1
